Measurements taken from paper PMC5113203.

Target: human lysyl-tRNA synthetase anticodon-binding domain (hLysRS ACB) (Homo sapiens, UniProt Q15046 91-216)
Assay: fluorescence anisotropy

Chain of human lysyl-tRNA synthetase anticodon-binding domain (hLysRS ACB) (Q15046 91-216): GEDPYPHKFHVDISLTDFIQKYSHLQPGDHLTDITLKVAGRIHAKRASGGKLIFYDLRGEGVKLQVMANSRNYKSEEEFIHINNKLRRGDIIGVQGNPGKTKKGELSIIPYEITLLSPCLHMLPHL

B1: C9 (ssRNA)
RNA: CCCCCCCCC
binding signal: ~100 fold lower affinity than U9
